Test results as given in patent publication US20240270821A1, “GIP/GLP1/GCG TRI-RECEPTOR AGONISTS AND USES THEREOF” (priority 2023, published 2024).
Non-standard residues stand in square brackets, D forms with d. No end group written: not given here. Phe(4-CN) = N#Cc1ccc(C[C@H](N)C(=O)O)cc1; αMePhe(2-F) = C[C@](N)(Cc1ccccc1F)C(=O)O; αMeL = CC(C)C[C@](C)(N)C(=O)O; Aib = CC(C)(N)C(=O)O

B1: Example 339 (peptide)
chain: Y[Aib]QGT[αMePhe(2-F)]TSDYSKLLDKIAQKAFIEYLIEGGPSSGAPPPSEG-NH2
modifications: not fully specified (residue 20)
B2: Example 345 (peptide)
chain: Y[Aib]QGT[αMePhe(2-F)]TSDYSILLDKQAQKAFIEYLLEGGPSSGEPPPSEG-NH2
modifications: not fully specified (residue 20)
B3: Example 340 (peptide)
chain: Y[Aib]QGT[αMePhe(2-F)]TSDYSILLDKQAAKEFIEYLIEGGPSSGAPPPSEG-NH2
modifications: not fully specified (residue 20)
B4: Example 330 (peptide)
chain: Y[Aib]QGT[αMePhe(2-F)]TSDYSKLLDKIAQKAFIEYLIEGGPSSGEPPPSEG-NH2
modifications: not fully specified (residue 20)
B5: Example 346 (peptide)
chain: Y[Aib]QGT[αMePhe(2-F)]TSDFSILLDKQAQKAFIEYLLEGGPSSGEPPPSEG-NH2
modifications: not fully specified (residue 20)
B6: Example 342 (peptide)
chain: Y[Aib]QGTFTSDYSK[αMeL]LDKKAQQAFVQWLIE[dA]GPSSGEPPPSEG-NH2
modifications: not fully specified (residue 17)
B7: Example 341 (peptide)
chain: Y[Aib]QGT[αMePhe(2-F)]TSD[Phe(4-CN)]SILLDKQAQKAFIQYLLEGGPSSGEPPPSEG-NH2
modifications: not fully specified (residue 20)
B8: Example 338 (peptide)
chain: Y[Aib]QGT[αMePhe(2-F)]TSDYSKLLDKIAQKAFIQYLIEGGPSSGEPPPSEG-NH2
modifications: not fully specified (residue 20)
B9: Example 352 (peptide)
chain: Y[Aib]QGT[αMePhe(2-F)]TSD[Phe(4-CN)]SILLDKQAQKAFIEYLLEGGPSSGEPPPSEG-NH2
modifications: not fully specified (residue 20)
B10: Example 351 (peptide)
chain: Y[Aib]QGT[αMePhe(2-F)]TSDYSILLDAQAAKEFIEYLIEGGPSSGEPPPSEG-NH2
modifications: not fully specified (residue 20)
B11: Example 331 (peptide)
chain: Y[Aib]QGT[αMePhe(2-F)]TSDYSILLDKQAAKAFIEYLIEGGPSSGEPPPSEG-NH2
modifications: not fully specified (residue 20)

What follows are binders tested against hGLP-1R (Homo sapiens, UniProt P43220) (assay: cell-based or functional assay).
hGLP-1R, sequence (P43220 24-463): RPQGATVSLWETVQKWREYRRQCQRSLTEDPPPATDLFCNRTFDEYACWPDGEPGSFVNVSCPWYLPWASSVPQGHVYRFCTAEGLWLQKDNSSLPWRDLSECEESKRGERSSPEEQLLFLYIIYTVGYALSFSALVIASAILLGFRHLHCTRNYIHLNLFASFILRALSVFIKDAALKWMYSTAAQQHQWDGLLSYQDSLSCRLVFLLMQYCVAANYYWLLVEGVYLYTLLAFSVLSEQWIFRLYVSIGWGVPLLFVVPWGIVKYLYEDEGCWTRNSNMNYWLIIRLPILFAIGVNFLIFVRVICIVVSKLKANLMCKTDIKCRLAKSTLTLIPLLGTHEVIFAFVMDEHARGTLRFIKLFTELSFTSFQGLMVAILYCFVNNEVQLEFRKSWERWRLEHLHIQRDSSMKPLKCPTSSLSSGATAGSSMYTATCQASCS

Row | Binder | Relative cAMP EC50 [nM] | cAMP Rel EC50 (1% HSA) [nM] | cAMP Rel EC50, nM (1% HSA) [nM]
1 | B1 | 1.06 | 192 | –
2 | B2 | 0.658 | 256 | –
3 | B3 | 0.648 | 246 | –
4 | B4 | 0.63 | 91.8 | –
5 | B5 | 1.17 | 514 | –
6 | B6 | 0.419 | 62 | –
7 | B7 | 1.62 | 395 | –
8 | B8 | 1.22 | 172 | –
9 | B9 | 0.967 | – | 407
10 | B10 | 0.679 | – | 272
11 | B11 | 0.663 | 207 | –

These binders were tested against T1, human GIP receptor (human) (UniProt P48546) (assay: cell-based or functional assay).
T1 sequence (looked up): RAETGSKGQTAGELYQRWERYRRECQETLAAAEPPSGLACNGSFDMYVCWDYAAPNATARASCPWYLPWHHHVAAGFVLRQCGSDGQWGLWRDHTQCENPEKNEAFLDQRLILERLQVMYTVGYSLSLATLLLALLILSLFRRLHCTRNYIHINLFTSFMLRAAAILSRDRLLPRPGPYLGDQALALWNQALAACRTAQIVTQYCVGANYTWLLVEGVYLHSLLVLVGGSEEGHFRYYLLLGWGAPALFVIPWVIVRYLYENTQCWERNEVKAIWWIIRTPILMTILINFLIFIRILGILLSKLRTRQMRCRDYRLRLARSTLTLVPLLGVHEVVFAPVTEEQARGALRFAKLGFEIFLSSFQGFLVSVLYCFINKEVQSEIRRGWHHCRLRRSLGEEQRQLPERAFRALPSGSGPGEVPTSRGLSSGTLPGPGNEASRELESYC

Row | Binder | Relative cAMP EC50 [nM] | cAMP Rel EC50 (1% HSA) [nM] | cAMP Rel EC50, nM (1% HSA) [nM]
12 | B1 | 0.101 | 28.8 | –
13 | B2 | 0.0377 | 15.3 | –
14 | B3 | 0.189 | 60.4 | –
15 | B4 | 0.0783 | 7.33 | –
16 | B5 | 0.0738 | 28.3 | –
17 | B6 | 0.347 | 71.3 | –
18 | B7 | 0.213 | 49.6 | –
19 | B8 | 0.0733 | 10.9 | –
20 | B9 | 0.245 | – | 34.1
21 | B10 | 0.243 | – | 57.5
22 | B11 | 0.148 | 47.5 | –

These binders were tested against human glucagon receptor (human) (UniProt P47871) (assay: cell-based or functional assay).
human glucagon receptor (human), sequence (P47871 26-477): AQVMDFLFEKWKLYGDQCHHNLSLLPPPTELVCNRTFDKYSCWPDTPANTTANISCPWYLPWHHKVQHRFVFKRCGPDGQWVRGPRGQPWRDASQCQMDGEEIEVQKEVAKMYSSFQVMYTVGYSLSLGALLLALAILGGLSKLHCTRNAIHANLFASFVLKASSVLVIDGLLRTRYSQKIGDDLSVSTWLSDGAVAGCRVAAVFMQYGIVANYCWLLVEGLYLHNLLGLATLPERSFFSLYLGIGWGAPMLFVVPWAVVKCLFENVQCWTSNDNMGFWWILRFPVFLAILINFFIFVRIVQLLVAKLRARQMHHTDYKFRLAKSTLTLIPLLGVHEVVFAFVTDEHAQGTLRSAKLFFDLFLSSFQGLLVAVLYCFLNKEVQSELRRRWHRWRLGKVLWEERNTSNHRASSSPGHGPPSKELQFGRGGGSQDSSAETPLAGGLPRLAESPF

Row | Binder | Relative cAMP EC50 [nM] | cAMP Rel EC50 (1% HSA) [nM] | cAMP Rel EC50, nM (1% HSA) [nM]
23 | B1 | 6.81 | 1510 | –
24 | B2 | 11.3 | 3300 | –
25 | B3 | 2.02 | 647 | –
26 | B4 | 3.91 | 398 | –
27 | B5 | 15.6 | 4310 | –
28 | B6 | 10.2 | 2130 | –
29 | B7 | 10.7 | 2930 | –
30 | B8 | 4.02 | 659 | –
31 | B9 | 16.4 | – | 4020
32 | B10 | 12.1 | – | 2470
33 | B11 | 1.66 | 339 | –
